Experimental data taken from US20070265350.

Assays:
His-Cdc42 = His-Cdc42 (UniProt P60953)
Chain of His-Cdc42 (P60953 whole entry, looked up): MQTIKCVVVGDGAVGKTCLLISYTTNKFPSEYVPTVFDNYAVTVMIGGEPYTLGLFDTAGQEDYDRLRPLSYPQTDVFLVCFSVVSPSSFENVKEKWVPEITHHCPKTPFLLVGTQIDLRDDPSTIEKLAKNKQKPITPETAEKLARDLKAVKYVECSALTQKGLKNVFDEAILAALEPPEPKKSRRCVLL

Chain of Bovine copper/zinc superoxide dismutase (SOD1), native (chain, as listed by the source): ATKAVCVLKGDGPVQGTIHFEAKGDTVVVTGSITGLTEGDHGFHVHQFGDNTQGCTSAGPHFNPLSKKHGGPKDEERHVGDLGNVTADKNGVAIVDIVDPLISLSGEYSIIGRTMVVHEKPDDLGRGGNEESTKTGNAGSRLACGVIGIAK
Chain of Demetalated bovine SOD1 (chain, as listed by the source): as above

Row | Substance | Cdc42 GTPase assay (rate of 32Pi release from γP32-GTP) (His-Cdc42) | Rac1 GTPase assay (rate of 32Pi release from γP32-GTP) (Histidine-tagged Rac1)
1 | Bovine copper/zinc superoxide dismutase (SOD1), native | The ability of SOD1 to inhibit GTP hydrolysis was also specific for Rac1 and was not observed with the closely related small GTPase Cdc42 | 
2 | Demetalated bovine SOD1 |  | also did not inhibit Rac1 GTPase activity (FIG. 6B)
